Substitutions are numbered along the chain they refer to. In names and notes the source's numbering stands. Each block holds one binder with its values, some of them ahead of it.
Columns and labels:
[1] = molecular target: T1, Human CD3ε stalk-Fc(knob)-Avi/CD3δ stalk-Fc(hole) (human); test: SPR, TCB format, monovalent binding
T1 construct: Heterodimeric Fc fusion; also called human CD3ε/δ; Human CD3 epsilon stalk-Fc(knob)-Avi
Experimental: The experimental setup is schematically depicted in FIG. 3.
The dissociation was monitored for 800 s.
Kinetic constants were derived using the Biacore T200 Evaluation Software (GE Healthcare Life Sciences), to fit rate equations for 1:1 Langmuir binding by numerical integration. The half-life (t_{1/2}) of the interaction was calculated using the formula t_{1/2}=ln 2/koff.

[2] = molecular target: T1, Human CD3ε stalk-Fc(knob)-Avi/CD3δ …; test: SPR, biotinylated human CD3ε/δ on SA chip, TCB at 2 µg/ml; response normalised to anti-huIgG capture and referenced to the unstressed sample; after 2 weeks at pH 6.0/40 °C
Experimental: (§1) In order to assess the effect of the deamidation site removal and its effect on the stability of the antibodies, the optimized anti-CD3 antibodies (in TCB format) were incubated for 14 days at 37° C., pH 7.4 and at 40° C., pH 6 and further analyzed by SPR for their binding capability to human CD3ε/δ. Samples stored at −80° C. pH 6 were used as reference. The reference samples and the samples stressed at 40° C. were in 20 mM His, 140 mM NaCl, pH 6.0, and the samples stressed at 37° C. in PBS, pH 7.4, all at a concentration of 1.0 mg/ml. After the stress period (14 days) samples in PBS were dialyzed back to 20 mM His, 140 mM NaCl, pH 6.0 for further analysis.
(§2) All SPR experiments were performed on a Biacore T200 instrument (GE Healthcare) at 25° C. with HBS-P+ (10 mM HEPES, 150 mM NaCl pH 7.4, 0.05% Surfactant P20) as running and dilution buffer. Biotinylated human CD3ε/δ (see Example 3, SEQ ID NOs 41 and 42) as well as biotinylated anti-huIgG (Capture Select, Thermo Scientific, #7103262100) were immobilized on a Series S Sensor Chip SA (GE Healthcare, #29104992), resulting in surface densities of at least 1000 resonance units (RU). Anti-CD3 antibodies with a concentration of 2 μg/ml were injected for 30 s at a flow rate of 5 μl/min, and dissociation was monitored for 120 s. The surface was regenerated by injecting 10 mM glycine pH 1.5 for 60 s. Bulk refractive index differences were corrected by subtracting blank injections and by subtracting the response obtained from a blank control flow cell. For evaluation, the binding response 5 seconds after injection end was taken. To normalize the binding signal, the CD3 binding was divided by the anti-huIgG response (the signal (RU) obtained upon capture of the CD3 antibody on the immobilized anti-huIgG antibody). The relative binding activity was calculated by referencing each temperature stressed sample to the corresponding, non-stressed sample.

[3] = molecular target: T1, Human CD3ε stalk-Fc(knob)-Avi/CD3δ …; test: SPR, biotinylated human CD3ε/δ on SA chip, TCB at 2 µg/ml; response normalised to anti-huIgG capture and referenced to the unstressed sample; after 2 weeks at pH 7.4/37 °C
Experimental: as §1, §2

[4] = molecular target: T2, FOLR1 CD3 TCB P035.093; test: SPR, Biacore T200, 37 °C; FOLR1 CD3 TCB P035.093 captured on FOLR1-Fc (C1 chip), anti-idiotypic antibody as analyte; n=5; Stdev 198 s
T2 construct: Classical 2+1 TCB, knob-into-hole, PGLALA; the common light chain pairs with each of the Fabs; also called FOLR1 TCB CD3: P035.093
Experimental: (§3) Briefly, FOLR1-Fc was immobilized on a series s sensor chip C1 using standard amine coupling chemistry according to the manufacturer's instructions. […] The first flow cell was kept as mock surface. […] Dissociation was monitored for 300 s, the flow rate was set to 30 μl/min. The surface was regenerated by injecting 10 mM Glycine pH 2.0 for 60 s, followed by injecting 5 mM NaOH for 60 s at a flow rate of 5 μl/min. Bulk refractive index differences were corrected by subtracting the response obtained from flow cell one (mock surface) as well as by substracting buffer injections (double referencing). The derived curves were fitted to a 1:1 Langmuir binding model using the BIAevaluation software (GE Healthcare). […] All experiments were performed at 37° C. using HBS-N (10 mM HEPES, 150 mM NaCl pH 7.4, 0.05% Surfactant P-20).

[5] = molecular target: T2, FOLR1 CD3 TCB P035.093; test: SPR, Biacore T200, 37 °C; FOLR1 CD3 TCB P035.093 captured on FOLR1-Fc (C1 chip), anti-idiotypic antibody 1.2-100 nM as analyte; 1:1 Langmuir fit; n=5; Stdev 0.5 nM
Experimental: as §3

[6] = molecular target: T3, biotinylated anti-human CD3 IgG (anti-CD3 P035.093) (biotinylated (site not stated)); test: SPR; biotinylated anti-CD3 P035.093 IgG on CAP chip, anti-idiotypic IgG at 1 µg/ml; response normalised to anti-human IgG surface and to the unstressed sample; after 14 d at 37 °C pH 7.4
T3 construct: IgG format of this reagent is not described further; immobilised on a CAP chip; also called CD3 IgG (P035.093)
T3 sequence (VH, as listed by the source, chain 1 of 2): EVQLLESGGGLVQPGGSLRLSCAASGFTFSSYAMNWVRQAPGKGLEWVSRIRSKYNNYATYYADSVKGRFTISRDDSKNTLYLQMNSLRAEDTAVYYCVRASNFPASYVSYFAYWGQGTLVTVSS
T3 sequence (VL, as listed by the source, chain 2 of 2): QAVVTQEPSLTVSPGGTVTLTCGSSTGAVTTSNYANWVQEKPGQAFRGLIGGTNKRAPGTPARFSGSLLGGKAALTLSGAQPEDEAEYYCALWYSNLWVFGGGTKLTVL
Experimental: Therefore, they were analyzed for thermal stability and remaining target binding after 14 d stress conditions (40° C. at pH6.0 or 37° C. at pH7.4).
(§4) Flow cell 1 was kept as mock surface. […] Dissociation was monitored for 30 s, the flow rate was set to 5 μl/min. The CAP chip was regenerated by injecting a mix of NaOH and Guadinium-hydrochloride for 120 s, provided in the biotin capture kit. Bulk refractive index differences were corrected by subtracting the response obtained from flow cell 1 (mock surface).

[7] = molecular target: T3, biotinylated anti-human CD3 IgG …; test: SPR; biotinylated anti-CD3 P035.093 IgG on CAP chip, anti-idiotypic IgG at 1 µg/ml; response normalised to anti-human IgG surface and to the unstressed sample; after 14 d at 40 °C pH 6.0
Experimental: as §4

[8] = molecular target: T2, FOLR1 CD3 TCB P035.093; test: SPR, Biacore T200, 37 °C; FOLR1 CD3 TCB P035.093 captured on FOLR1-Fc (C1 chip), anti-idiotypic antibody as analyte; n=5; Stdev 156 s
Experimental: as §3

[9] = molecular target: T2, FOLR1 CD3 TCB P035.093; test: SPR, Biacore T200, 37 °C; FOLR1 CD3 TCB P035.093 captured on FOLR1-Fc (C1 chip), anti-idiotypic antibody 1.2-100 nM as analyte; 1:1 Langmuir fit; n=5; Stdev 1.0 nM
Experimental: as §3

[10] = molecular target: T2, FOLR1 CD3 TCB P035.093; test: SPR, Biacore T200, 37 °C; FOLR1 CD3 TCB P035.093 captured on FOLR1-Fc (C1 chip), anti-idiotypic antibody as analyte; n=5; Stdev 66 s
Experimental: as §3

[11] = molecular target: T2, FOLR1 CD3 TCB P035.093; test: SPR, Biacore T200, 37 °C; FOLR1 CD3 TCB P035.093 captured on FOLR1-Fc (C1 chip), anti-idiotypic antibody 1.2-100 nM as analyte; 1:1 Langmuir fit; n=5; Stdev 0.6 nM
Experimental: as §3

[12] = molecular target: T2, FOLR1 CD3 TCB P035.093; test: SPR, Biacore T200, 37 °C; FOLR1 CD3 TCB P035.093 captured on FOLR1-Fc (C1 chip), anti-idiotypic antibody as analyte; n=5; Stdev 222 s
Experimental: as §3

- fold of binding half-life over CD3orig [1]: ≤ 6 fold
- binding activity [%] [2]: 99%
- binding activity [%] [3]: 99%
B1: TYRP1 TCB containing optimized anti-CD3 antibody clone P033.078 (bispecific antibody, human IgG1, kappa, L234A L235A)
heavy 1: not shown
heavy 2: QVQLVQSGAEVKKPGASVKVSCKASGFNIKDYFLHWVRQAPGQGLEWMGWINPDNGNTVYAQKFQGRVTMTADTSTSTVYMELSSLRSEDTAVYYCTRRDYTYEKAALDYWGQGTLVTVSSASTKGPSVFPLAPSSKSTSGGTAALGCLVEDYFPEPVTVSWNSGALTSGVHTFPAVLQSSGLYSLSSVVTVPSSSLGTQTYICNVNHKPSNTKVDEKVEPKSCDKTHTCPPCPAPEAAGGPSVFLFPPKPKDTLMISRTPEVTCVVVDVSHEDPEVKFNWYVDGVEVHNAKTKPREEQYNSTYRVVSVLTVLHQDWLNGKEYKCKVSNKALGAPIEKTISKAKGQPREPQVCTLPPSRDELTKNQVSLSCAVKGFYPSDIAVEWESNGQPENNYKTTPPVLDSDGSFFLVSKLTVDKSRWQQGNVFSCSVMHEALHNHYTQKSLSLSP
light 1: DIQMTQSPSSLSASVGDRVTITCRASGNIYNYLAWYQQKPGKVPKLLIYDAKTLADGVPSRFSGSGSGTDFTLTISSLQPEDVATYYCQHFWSLPFTFGQGTKLEIKRTVAAPSVFIFPPSDRKLKSGTASVVCLLNNFYPREAKVQWKVDNALQSGNSQESVTEQDSKDSTYSLSSTLTLSKADYEKHKVYACEVTHQGLSSPVTKSFNRGEC
light 2: EVQLLESGGGLVQPGGSLRLSCAASGFTFESYAMNWVRQAPGKGLEWVSRIRSKYNEYATYYADSVKGRFTISRDDSKNTLYLQMNSLRAEDTAVYYCVRASNFPSSFVSYFGYWGQGTLVTVSSASVAAPSVFIFPPSDEQLKSGTASVVCLLNNFYPREAKVQWKVDNALQSGNSQESVTEQDSKDSTYSLSSTLTLSKADYEKHKVYACEVTHQGLSSPVTKSFNRGEC
notes: 2+1 IgG CrossFab, inverted, with charge modifications; knob-into-hole, P329G L234A L235A; also called CD3opt (P033.078); P033.078 in TCB format

- t1/2 diss [4]: 6.6 min
- Kd [5]: 1.2 nM
- Rel. active concentration [%] [6]: 94%
- Rel. active concentration [%] [7]: 97%
B2: Humanized variant H1L2 of anti-idiotypic antibody 4.24.72 (IgG) (antibody, V domains shown)
VH: QVQLVQSGSELKKPGASVKVSCKASGYTVTDYSMNWVRQAPGQGLEWMGWINTETGEPRYTDDFKGRFVFSLDTSVSTAYLQISSLKAEDTAVYYCAREGDYDVFDYWGQGTLVTVSS
VL: DIVMTQSPDSLAVSLGERATINCKSSKSVSTSSYSYMHWYQQKPGQPPKLLIKYVSYLESGVPDRFSGSGSGTDFTLTISSLQAEDVAVYYCQHSREFPYTFGQGTKLEIK
notes: Produced and purified as IgG; also called Mask humanization variant H1L2

- t1/2 diss [8]: 6.2 min
- Kd [9]: 1.8 nM
- Rel. active concentration [%] [6]: 93%
- Rel. active concentration [%] [7]: 98%
B3: Humanized variant H2L2 of anti-idiotypic antibody 4.24.72 (IgG) (antibody, V domains shown)
VH: B2 VH with K65T
VL: B2 VL
notes: Produced and purified as IgG; also called Mask humanization variant H2L2

- t1/2 diss [10]: 6.18 min
- Kd [11]: 1.8 nM
- Rel. active concentration [%] [6]: 93%
- Rel. active concentration [%] [7]: 99%
B4: Humanized variant H1L1 of anti-idiotypic antibody 4.24.72 (IgG) (antibody, V domains shown)
VH: B2 VH
VL: B2 VL with K24R, S25A
notes: Produced and purified as IgG; also called Mask humanization variant H1L1

- t1/2 diss [12]: 7.67 min
- Kd [5]: 1.1 nM
- Rel. active concentration [%] [6]: 94%
- Rel. active concentration [%] [7]: 97%
B5: Humanized variant H3L2 of anti-idiotypic antibody 4.24.72 (IgG) (antibody, V domains shown)
VH: B2 VH with D62Q, D63G
VL: B2 VL
notes: Produced and purified as IgG; also called Mask humanization variant H3L2

From US20230287145A1 (Hoffmann-La Roche, published 2023)
